The assay has as its target T1, human homodimer IL-17A (human, UniProt Q16552 24-155).
T1 construct: Homodimer as printed; also called interleukin-17A
As to the kind of experiment: not stated (affinity given in running text of Example 1, no method).

Drawing on patent US20200277369A1 (Novartis, published 2020), this text covers Kd for one molecule.

T1 sequence (Q16552 24-155 limits assumed): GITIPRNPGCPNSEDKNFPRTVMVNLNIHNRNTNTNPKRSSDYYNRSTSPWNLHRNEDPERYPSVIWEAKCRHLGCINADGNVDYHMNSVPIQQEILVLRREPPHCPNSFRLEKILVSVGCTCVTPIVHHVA

B1: CJM112 (antibody, V domains shown)
VH: EVQLVESGGDLVQPGGSLRLSCAASGFTFSSYWMSWVRQAPGKGLEWVANIKQDGSEKYYVDSVKGRFTISRDNAKNSLYLQMNSLRAEDTAVYYCARDRGSLYYWGQGTLVTVSS
VL: AIQLTQSPSSLSASVGDRVTITCRPSQGINWELAWYQQKPGKAPKLLIYDASSLEQGVPSRFSGSGSGTDFTLTISSLQPEDFATYYCQQFNSYPLTFGGGTKVEIK
As for B1, binding was put at a Kd of 6 pM.
